Reference: US20160230171

T1: plakoglobin
T1 chain: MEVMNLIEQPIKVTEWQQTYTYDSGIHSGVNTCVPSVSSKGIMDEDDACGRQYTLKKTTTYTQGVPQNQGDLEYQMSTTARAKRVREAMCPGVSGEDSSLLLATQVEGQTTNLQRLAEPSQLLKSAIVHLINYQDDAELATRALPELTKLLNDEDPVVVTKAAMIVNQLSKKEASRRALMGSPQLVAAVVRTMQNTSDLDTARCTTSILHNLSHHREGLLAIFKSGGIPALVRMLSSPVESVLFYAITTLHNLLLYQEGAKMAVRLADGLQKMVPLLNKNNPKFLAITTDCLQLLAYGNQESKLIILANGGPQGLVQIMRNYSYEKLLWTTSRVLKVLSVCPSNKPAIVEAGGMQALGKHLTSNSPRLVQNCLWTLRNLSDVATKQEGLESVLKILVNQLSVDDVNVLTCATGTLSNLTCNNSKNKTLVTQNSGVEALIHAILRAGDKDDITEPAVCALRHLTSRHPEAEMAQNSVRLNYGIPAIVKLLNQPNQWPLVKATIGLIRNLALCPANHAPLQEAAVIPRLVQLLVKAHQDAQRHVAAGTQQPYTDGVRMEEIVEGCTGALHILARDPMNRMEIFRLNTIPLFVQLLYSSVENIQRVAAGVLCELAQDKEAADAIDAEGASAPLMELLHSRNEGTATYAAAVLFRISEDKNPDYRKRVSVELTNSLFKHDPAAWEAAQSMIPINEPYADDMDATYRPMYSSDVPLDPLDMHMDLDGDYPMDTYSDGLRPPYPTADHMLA

T2: 6His-plakoglobin
T2 chain: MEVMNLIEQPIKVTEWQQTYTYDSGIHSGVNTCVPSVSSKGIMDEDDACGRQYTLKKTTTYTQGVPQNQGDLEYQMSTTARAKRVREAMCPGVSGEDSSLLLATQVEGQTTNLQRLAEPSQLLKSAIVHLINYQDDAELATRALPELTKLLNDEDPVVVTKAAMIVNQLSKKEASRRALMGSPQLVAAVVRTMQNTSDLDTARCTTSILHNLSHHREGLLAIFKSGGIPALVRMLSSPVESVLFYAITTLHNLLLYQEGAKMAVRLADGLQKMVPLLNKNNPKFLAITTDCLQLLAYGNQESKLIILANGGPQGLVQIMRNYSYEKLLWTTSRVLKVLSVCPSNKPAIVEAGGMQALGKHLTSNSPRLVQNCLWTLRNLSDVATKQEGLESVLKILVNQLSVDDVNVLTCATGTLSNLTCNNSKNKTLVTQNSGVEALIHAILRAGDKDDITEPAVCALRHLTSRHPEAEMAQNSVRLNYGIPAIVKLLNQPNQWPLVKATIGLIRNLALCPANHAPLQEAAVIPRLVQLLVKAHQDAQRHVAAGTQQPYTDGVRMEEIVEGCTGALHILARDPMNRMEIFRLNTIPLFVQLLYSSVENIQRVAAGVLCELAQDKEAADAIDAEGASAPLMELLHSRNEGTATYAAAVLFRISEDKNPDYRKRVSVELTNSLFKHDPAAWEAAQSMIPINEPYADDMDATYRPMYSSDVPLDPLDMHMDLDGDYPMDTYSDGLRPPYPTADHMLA

B1: GST-Trim32 (protein)
chain: MAAAAAASHLNLDALREVLECPICMESFTEEQLRPKLLHCGHTICRQCLEKLLASSINGVRCPFCSKITRITSLTQLTDNLTVLKIIDTAGLSEAVGLLMCRGCGRRLPRQFCRSCGVVLCEPCREADHQPPGHCTLPVKEAAEERRRDFGEKLTRLRELTGELQRRKAALEGVSRDLQARYKAVLQEYGHEERRIQEELARSRKFFTGSLAEVEKSNSQVVEEQSYLLNIAEVQAVSRCDYFLAKIKQADVALLEETADEEEPELTASLPRELTLQDVELLKVGHVGPLQIGQAVKKPRTVNMEDSWAGEEGAASSASASVTFREMDMSPEEVAPSPRASPAKQRSSEAASGIQQCLFLKKMGAKGSTPGMFNLPVSLYVTSQSEVLVADRGNYRIQVFNRKGFLKEIRRSPSGIDSFVLSFLGADLPNLTPLSVAMNCHGLIGVTDSYDNSLKVYTMDGHCVACHRSQLSKPWGITALPSGQFVVTDVEGGKLWCFTVDRGAGVVKYSCLCSAVRPKFVTCDAEGTVYFTQGLGLNVENRQNEHHLEGGFSIGSVGPDGQLGRQISHFFSENEDFRCIAGMCVDARGDLIVADSSRKEILHFPKGGGYSVLIREGLTCPVGIALTPKGQLLVLDCWDHCVKIYSYHLRRYSTP
B2: recombinant Trim32 (protein)
chain: MAAAAAASHLNLDALREVLECPICMESFTEEQLRPKLLHCGHTICRQCLEKLLASSINGVRCPFCSKITRITSLTQLTDNLTVLKIIDTAGLSEAVGLLMCRGCGRRLPRQFCRSCGVVLCEPCREADHQPPGHCTLPVKEAAEERRRDFGEKLTRLRELTGELQRRKAALEGVSRDLQARYKAVLQEYGHEERRIQEELARSRKFFTGSLAEVEKSNSQVVEEQSYLLNIAEVQAVSRCDYFLAKIKQADVALLEETADEEEPELTASLPRELTLQDVELLKVGHVGPLQIGQAVKKPRTVNMEDSWAGEEGAASSASASVTFREMDMSPEEVAPSPRASPAKQRSSEAASGIQQCLFLKKMGAKGSTPGMFNLPVSLYVTSQSEVLVADRGNYRIQVFNRKGFLKEIRRSPSGIDSFVLSFLGADLPNLTPLSVAMNCHGLIGVTDSYDNSLKVYTMDGHCVACHRSQLSKPWGITALPSGQFVVTDVEGGKLWCFTVDRGAGVVKYSCLCSAVRPKFVTCDAEGTVYFTQGLGLNVENRQNEHHLEGGFSIGSVGPDGQLGRQISHFFSENEDFRCIAGMCVDARGDLIVADSSRKEILHFPKGGGYSVLIREGLTCPVGIALTPKGQLLVLDCWDHCVKIYSYHLRRYSTP

Experiments:
plakoglobin = biological target: T1, plakoglobin
6His-plakoglobin = biological target: T2, 6His-plakoglobin

Row | Protein | polyubiquitination in vitro (E1, UbcH5, ATP, 6His-ubiquitin; nickel column; mass spectrometry) (plakoglobin) | polyubiquitination in vitro (Trim32, UbcH5, ubiquitin, ATP; Ni column; immunoblot with anti plakoglobin) (6His-plakoglobin)
1 | B1 | plakoglobin was polyubiquitinated by Trim32 (as documented by the presence of 13 unique peptides) | 
2 | B2 |  | recombinant Trim32 also polyubiquitinated 6His-plakoglobin, which was expressed and purified from normal muscle
